This data set deals with the molecule itself. Description: negative-stain TEM; MBP-CPSF6 P1 or P2 alone, incubated in CA assembly buffer.

B1: MBP-His6-CPSF6-588 (natural protein, UniProt Q16630-2 1-588, looked up)
chain: MADGVDHIDIYADVGEEFNQEAEYGGHDQIDLYDDVISPSANNGDAPEDRDYMDTLPPTVGDDVGKGAAPNVVYTYTGKRIALYIGNLTWWTTDEDLTEAVHSLGVNDILEIKFFENRANGQSKGFALVGVGSEASSKKLMDLLPKRELHGQNPVVTPCNKQFLSQFEMQSRKTTQSGQMSGEGKAGPPGGSSRAAFPQGGRGRGRFPGAVPGGDRFPGPAGPGGPPPPFPGNLIKHLVKGTRPLFLETRIPWHMGHSIEEIPIFGLKAGQTPPRPPLGPPGPPGPPGPPPPGQVLPPPLAGPPNRGDRPPPPVLFPGQPFGQPPLGPLPPGPPPPVPGYGPPPGPPPPQQGPPPPPGPFPPRPPGPLGPPLTLAPPPHLPGPPPGAPPPAPHVNPAFFPPPTNSGMPTSDSRGPPPTDPYGRPPPYDRGDYGPPGREMDTARTPLSEAEFEEIMNRNRAISSSAISRAVSDASAGDYGSAIETLVTAISLIKQSKVSADDRCKVLISSLQDCLHGIESKSYGSGSRRERSRERDHSRSREKSRRHKSRSRDRHDDYYRERSRERERHRDRDRDRDRERDREREYRHR
notes: cleavage and polyadenylation specificity factor 6 (CPSF6), the isoform of 588 residues, full length; Order: MBP, His6, CPSF6; An HRV-3C site allows removal of MBP, but the cleaved protein precipitated, so the tagged protein was used; Size exclusion gave two peaks of the same construct, P1 and P2, which are kept here as one molecule; also called MBP-CPSF6; full-length CPSF6; source: Expi 293F …
Consider B1, for which the binding result was “binds”.

Values taken from PMC8092277, “Cytoplasmic CPSF6 Regulates HIV-1 Capsid Trafficking and Infection in a Cyclophilin A-Dependent Manner” (mBio, 2021).
